Reference: patent US20200017592A1 (Regeneron, published 2020)
Changes are numbered by the printed parent chain.

What was measured:
[1] = biological target: T1, human IL-36R extracellular domain expressed with a C-terminal mouse IgG2a Fc tag (hIL-36R-mFc) (human; mouse, UniProt Q9HB29 20-337); test: SPR Biacore 4000, mAb captured on anti-hFc, 25C
T1 construct: not shown: mouse IgG2a Fc, E98-K330
T1 sequence (looked up): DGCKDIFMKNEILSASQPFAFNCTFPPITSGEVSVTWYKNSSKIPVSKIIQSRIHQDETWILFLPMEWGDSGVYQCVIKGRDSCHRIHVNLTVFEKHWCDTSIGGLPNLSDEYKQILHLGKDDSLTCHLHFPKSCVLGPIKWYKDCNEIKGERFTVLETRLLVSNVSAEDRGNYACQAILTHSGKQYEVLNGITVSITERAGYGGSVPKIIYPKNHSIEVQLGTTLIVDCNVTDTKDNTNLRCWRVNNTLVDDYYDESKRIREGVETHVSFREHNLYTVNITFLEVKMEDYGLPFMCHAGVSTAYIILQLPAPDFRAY
Method in brief: (§1)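 First, an anti-human Fc capture surface was prepared by amine coupling; next, anti-IL-36R antibody was captured. Then receptor analyte at 100 nM down to 3.7 nM was flowed for 4 minutes and dissociation monitored for 10 minutes. Finally, kinetics were fitted 1:1.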

[2] = biological target: T2, in-line fusion protein of human IL-36R extracellular domain and IL1RAcP extracellular domain expressed with … (human; mouse, UniProt Q9HB29 20-337; Q9NPH3 21-359, limits assumed); test: SPR Biacore 4000, mAb captured on anti-hFc, 25C
T2 construct: not shown: mouse IgG2a Fc
T2 sequence (looked up): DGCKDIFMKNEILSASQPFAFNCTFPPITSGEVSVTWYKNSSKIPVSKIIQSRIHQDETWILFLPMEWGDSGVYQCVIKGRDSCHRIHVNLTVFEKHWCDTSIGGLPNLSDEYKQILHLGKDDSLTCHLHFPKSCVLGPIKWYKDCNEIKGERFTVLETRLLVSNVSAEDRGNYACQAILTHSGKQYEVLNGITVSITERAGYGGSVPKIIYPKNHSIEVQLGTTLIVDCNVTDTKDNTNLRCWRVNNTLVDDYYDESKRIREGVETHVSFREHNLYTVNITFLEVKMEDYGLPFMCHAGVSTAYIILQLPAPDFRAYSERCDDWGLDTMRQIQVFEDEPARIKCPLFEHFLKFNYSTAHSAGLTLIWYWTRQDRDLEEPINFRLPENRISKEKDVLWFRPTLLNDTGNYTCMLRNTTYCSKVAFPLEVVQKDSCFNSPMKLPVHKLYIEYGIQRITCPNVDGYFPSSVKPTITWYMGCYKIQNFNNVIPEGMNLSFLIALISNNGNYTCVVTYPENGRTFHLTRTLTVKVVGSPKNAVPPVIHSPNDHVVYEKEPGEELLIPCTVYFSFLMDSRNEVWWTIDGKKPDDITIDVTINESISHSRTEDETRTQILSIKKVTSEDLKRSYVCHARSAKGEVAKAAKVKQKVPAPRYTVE
Method in brief: as §1

[3] = biological target: T3, human IL-36R extracellular domain expressed with a C-terminal myc-myc-hexahistidine tag (hIL-36R-MMH) (human, UniProt Q9HB29 20-337); test: SPR Biacore T200, mAb captured on anti-hFc, 37C, PBS-T pH 6.0 running buffer
T3 construct: also called Human IL-36R-MMH; REGN2105
Method in brief: (§2)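 Antibodies captured on an anti-human Fc surface; hIL-36R-MMH injected at 100-11.11 nM (3-fold) in PBS-T pH 7.4 for 4 min at 50 μL/min. Dissociation followed 10 min in PBS-T pH 7.4 or pH 6.0 at 25 °C or 37 °C; kd from 1:1 fit, t1/2 derived from kd.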

[4] = biological target: T3, human IL-36R extracellular domain …; test: SPR Biacore T200, mAb captured on anti-hFc, 25C, PBS-T pH 6.0 running buffer
Method in brief: as §2

[5] = biological target: T1, human IL-36R extracellular domain …; test: SPR Biacore 4000, mAb captured on anti-hFc, 37C
Method in brief: as §1

[6] = biological target: T2, in-line fusion protein of human IL-36R …; test: SPR Biacore 4000, mAb captured on anti-hFc, 37C
Method in brief: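 Anti-IL-36R mAbs were captured on an amine-coupled mouse anti-human Fc surface, and IL-36R reagents (100 nM to 3.7 nM, 3-fold dilutions) were injected for 4 minutes, then dissociation was followed for 10 minutes in HBS-ET (0.01 M Hepes pH 7.4, 0.15 M NaCl, 3 mM EDTA, 0.05% Tween-20). KD came from 1:1 kinetic fits.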

[7] = biological target: T3, human IL-36R extracellular domain …; test: SPR Biacore T200, mAb captured on anti-hFc, 25C, PBS-T pH 7.4 running buffer
Method in brief: as §2

[8] = biological target: T3, human IL-36R extracellular domain …; test: SPR Biacore T200, mAb captured on anti-hFc, 37C, PBS-T pH 7.4 running buffer
Method in brief: as §2

[9] = biological target: T4, human IL-36R (IL1RL2) on primary human cells (human, UniProt Q9HB29 20-575); test: cell-based or functional assay
T4 sequence (looked up): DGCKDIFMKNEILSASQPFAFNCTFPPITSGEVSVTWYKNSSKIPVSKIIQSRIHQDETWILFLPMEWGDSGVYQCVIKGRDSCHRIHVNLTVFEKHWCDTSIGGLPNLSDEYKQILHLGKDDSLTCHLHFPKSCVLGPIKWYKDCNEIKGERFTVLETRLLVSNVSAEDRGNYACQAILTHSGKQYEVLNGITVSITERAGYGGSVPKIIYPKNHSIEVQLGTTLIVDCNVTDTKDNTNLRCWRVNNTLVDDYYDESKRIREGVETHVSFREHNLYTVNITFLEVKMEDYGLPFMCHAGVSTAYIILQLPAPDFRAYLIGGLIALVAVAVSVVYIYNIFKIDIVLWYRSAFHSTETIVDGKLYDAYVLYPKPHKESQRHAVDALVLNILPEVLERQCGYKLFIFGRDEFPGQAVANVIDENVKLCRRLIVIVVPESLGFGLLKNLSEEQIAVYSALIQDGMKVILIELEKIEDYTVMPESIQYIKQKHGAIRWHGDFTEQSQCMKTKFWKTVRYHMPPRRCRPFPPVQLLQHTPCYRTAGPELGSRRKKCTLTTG

B1: H4H14758P (antibody, human IgG4 S228P, kappa, V domains shown)
VH: EVQLVESGGGLVQPGRSLRLSCAASGFTFDDYAMHWVRQAPGKGLEWVSSVRWNGGIIGYADSVKGRFTISRDNAKNSLYLQMNSLRPEDTALYYCAKDIGDVLTGYYGEYGMDVWGQGTTVTVSS
VL: DIQMTQSPSSLSASVGDRVTIACRASQSITTYLNWYQQKPGKAPKLLIYAASSLQSGVPSRFSGSGSGTDFTLTISSLQPEDFATYYCQQSYISPYTFGQGTKLEIKR
notes: Fully human anti-IL-36R antibody
100 nM hIL-36R-mFc Bound (RU) [1]: 161 RU | Kd [1]: 0.309 nM | koff [1]: 0.000163 s⁻¹ | kon [1]: 526000 M⁻¹ s⁻¹ | t1/2 [1]: 71 min | 100 nM hIL-36R-Trap-mFc Bound (RU) [2]: 197 RU | Kd [2]: 0.413 nM | koff [2]: 0.00018 s⁻¹ | kon [2]: 436000 M⁻¹ s⁻¹ | t1/2 [2]: 64 min | 100 nM hIL-36R-MMH Bound (RU) [3]: 120 RU | koff [3]: 0.00339 s⁻¹ | t1/2 [3]: 3 min | 100 nM Human IL-36R-MMH Bound (RU) [4]: 103 RU | koff [4]: 0.0018 s⁻¹ | t1/2 [4]: 6 min | 100 nM hIL-36R-mFc Bound (RU) [5]: 210 RU | Kd [5]: 0.517 nM | koff [5]: 0.000286 s⁻¹ | kon [5]: 554000 M⁻¹ s⁻¹ | t1/2 [5]: 40 min | 100 nM hIL-36R-Trap-mFc Bound (RU) [6]: 251 RU | Kd [6]: 0.777 nM | koff [6]: 0.000363 s⁻¹ | kon [6]: 468000 M⁻¹ s⁻¹ | t1/2 [6]: 32 min | 100 nM Human IL-36R-MMH Bound (RU) [7]: 108 RU | koff [7]: 0.00112 s⁻¹ | t1/2 [7]: 10 min | 100 nM hIL-36R-MMH Bound (RU) [8]: 126 RU | koff [8]: 0.00226 s⁻¹ | t1/2 [8]: 5 min

B2: H4H14760P2 (antibody, human IgG4 S228P, kappa, V domains shown)
VH: QVQLVESGGGVVQPGKSLRLSCAASGFTFSNYGIHWVRQAPGKGLEWVAIILYDGSNQHYADSVKGRFTISRDNSKNTLYLQMNNLRAEDTAVYYCARDLDLWSGYYTNGDGMDVWGQGTTVTVSS
VL: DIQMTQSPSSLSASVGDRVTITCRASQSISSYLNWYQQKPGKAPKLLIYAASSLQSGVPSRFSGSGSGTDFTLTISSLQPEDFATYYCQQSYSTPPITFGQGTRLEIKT
notes: as for B1
100 nM hIL-36R-mFc Bound (RU) [1]: 121 RU | Kd [1]: 0.526 nM | koff [1]: 0.000109 s⁻¹ | kon [1]: 207000 M⁻¹ s⁻¹ | t1/2 [1]: 106 min | 100 nM hIL-36R-Trap-mFc Bound (RU) [2]: 134 RU | Kd [2]: 0.636 nM | koff [2]: 0.0001 s⁻¹ | kon [2]: 158000 M⁻¹ s⁻¹ | t1/2 [2]: 115 min | 100 nM hIL-36R-MMH Bound (RU) [3]: 85 RU | koff [3]: 0.0039 s⁻¹ | t1/2 [3]: 3 min | 100 nM Human IL-36R-MMH Bound (RU) [4]: 69 RU | koff [4]: 0.000972 s⁻¹ | t1/2 [4]: 12 min | 100 nM hIL-36R-mFc Bound (RU) [5]: 173 RU | Kd [5]: 1.02 nM | koff [5]: 0.000222 s⁻¹ | kon [5]: 217000 M⁻¹ s⁻¹ | t1/2 [5]: 52 min | 100 nM hIL-36R-Trap-mFc Bound (RU) [6]: 195 RU | Kd [6]: 1.7 nM | koff [6]: 0.000283 s⁻¹ | kon [6]: 166000 M⁻¹ s⁻¹ | t1/2 [6]: 41 min | 100 nM Human IL-36R-MMH Bound (RU) [7]: 80 RU | koff [7]: 0.000545 s⁻¹ | t1/2 [7]: 21 min | 100 nM hIL-36R-MMH Bound (RU) [8]: 94 RU | koff [8]: 0.00187 s⁻¹ | t1/2 [8]: 6 min

B3: H4H14706P2 (antibody, human IgG4 S228P, kappa, V domains shown)
VH: EVQLVESGGGLVQPGRSLRLSCTASGFTFDDYAIHWVRQSPGKGLEWVSVISWNSDVIGYADSVKGRFTISRDNAKNSLYLQMNSLRAEDTALYYCAKGYNWNFFDYWGQGTLVTVSS
VL: EIVLTQSPATLSLSPGERATLSCRASQSVSSYLAWYQQKPGQAPRLLIYNAANRATDIPARFSGSGSGTDFTLTISSLEPEDFAVYYCQQRSNWPLTFGGGTKVEIKR
IC50 [M], IL-8 production, InMyoFib stimulated with 10 nM hIL-36α [9]: 4.89e-09 M | IC50 [M], IL-8 production, InMyoFib stimulated with 10 nM hIL-36β [9]: 3.62e-09 M | IC50 [M], IL-8 production, InMyoFib stimulated with 10 nM hIL-36γ [9]: 4.59e-09 M | IC50 [M], IL-8 production, NHEK stimulated with 10 nM hIL-36α [9]: 4.42e-09 M | IC50 [M], IL-8 production, NHEK stimulated with 10 nM hIL-36β [9]: 3.62e-09 M | IC50 [M], IL-8 production, NHEK stimulated with 10 nM hIL-36γ [9]: 2.11e-09 M | IC50 [M], IL-8 production, PB-derived CD14+ Monocytes stimulated with 10 nM hIL-36α [9]: 1.15e-09 M | IC50 [M], IL-8 production, PB-derived CD14+ Monocytes stimulated with 10 nM hIL-36β [9]: 1.74e-09 M | IC50 [M], IL-8 production, PB-derived CD14+ Monocytes stimulated with 10 nM hIL-36γ [9]: 1.58e-09 M

B4: H4H14708P2 (antibody, human IgG4 S228P, kappa, V domains shown)
VH: EVQLVESGGDLVQPGRSLRLSCAASGFTFDDYAMHWVRQAPGKGLEWVSVISWNSDVIAYSDSVKGRFTISRDNAKNSLYLQMNSLRTEDTALYYCTKGHKWSFFDYWGQGTLVTVSS
VL: B3 VL with V29I, Y49F, A51V
IC50 [M], IL-8 production, InMyoFib stimulated with 10 nM hIL-36α [9]: 5.72e-09 M | IC50 [M], IL-8 production, InMyoFib stimulated with 10 nM hIL-36β [9]: 5.3e-09 M | IC50 [M], IL-8 production, InMyoFib stimulated with 10 nM hIL-36γ [9]: 6.4e-09 M | IC50 [M], IL-8 production, NHEK stimulated with 10 nM hIL-36α [9]: 5.06e-09 M | IC50 [M], IL-8 production, NHEK stimulated with 10 nM hIL-36β [9]: 5.79e-09 M | IC50 [M], IL-8 production, NHEK stimulated with 10 nM hIL-36γ [9]: 3.63e-09 M | IC50 [M], IL-8 production, PB-derived CD14+ Monocytes stimulated with 10 nM hIL-36α [9]: 2.38e-09 M | IC50 [M], IL-8 production, PB-derived CD14+ Monocytes stimulated with 10 nM hIL-36β [9]: 2.24e-09 M | IC50 [M], IL-8 production, PB-derived CD14+ Monocytes stimulated with 10 nM hIL-36γ [9]: 1.95e-09 M
